Assay [1] has as its target T1, human glucagon receptor (human, UniProt P47871 26-477). The assay can be described thus: cell-based or functional assay.
For assay [2], the target named is T2, human GLP-1 receptor (human, UniProt P43220 24-463). The assay can be described thus: cell-based or functional assay.
Assay [3] deals with human GLP-1 receptor (human) (UniProt P43220). The assay is described as follows: cell-based or functional assay.
Assay [4] concerns the target T3, human glucose-dependent insulinotropic peptide (gastric inhibitory polypeptide) receptor (human) (UniProt P48546).
T3 sequence (looked up): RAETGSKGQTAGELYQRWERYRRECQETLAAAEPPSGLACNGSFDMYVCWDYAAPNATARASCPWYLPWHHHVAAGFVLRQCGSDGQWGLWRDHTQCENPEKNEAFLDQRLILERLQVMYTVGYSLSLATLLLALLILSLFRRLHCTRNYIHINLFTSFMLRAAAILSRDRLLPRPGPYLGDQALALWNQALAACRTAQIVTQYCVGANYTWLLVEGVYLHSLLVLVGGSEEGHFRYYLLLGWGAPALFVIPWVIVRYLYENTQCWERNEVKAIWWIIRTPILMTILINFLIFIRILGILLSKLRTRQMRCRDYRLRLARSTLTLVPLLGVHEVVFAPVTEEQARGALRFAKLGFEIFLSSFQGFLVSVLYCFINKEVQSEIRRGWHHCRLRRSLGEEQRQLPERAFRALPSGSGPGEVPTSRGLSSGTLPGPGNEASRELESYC
The assay is described as follows: cell-based or functional assay.

Assay [5] addresses human glucagon receptor (human) (UniProt P47871). The assay can be described thus: cell-based or functional assay.
Assay [6] deals with human serum albumin (human) (UniProt P02768). The assay is described as follows: calculated from the variation in cAMP generation with the HSA concentration.
Assay [7] addresses T2, human GLP-1 receptor. The assay is described as follows: cell-based or functional assay. This is another data set of the same source.
For assay [8], the target named is T4, human glucose-dependent insulinotropic peptide (gastric inhibitory polypeptide) receptor (human, UniProt P48546 22-466).
T4 sequence (looked up): T3 sequence (looked up)
The assay can be described thus: cell-based or functional assay.

For assay [9], the target named is T2, human GLP-1 receptor. The assay can be described thus: cell-based or functional assay. The source holds these as a separate data set.
Assay [10] has as its target T1, human glucagon receptor. The assay can be described thus: cell-based or functional assay. This is another data set of the same source.
Assay [11] concerns the target T2, human GLP-1 receptor. The assay can be described thus: cell-based or functional assay. The source holds these as a separate data set.
For assay [12], the target named is T4, human glucose-dependent insulinotropic …. The assay is described as follows: cell-based or functional assay. The source holds these as a separate data set.
Assay [13] has as its target T1, human glucagon receptor. The assay can be described thus: cell-based or functional assay. The source holds these as a separate data set.
Assay [14] deals with T2, human GLP-1 receptor. The assay can be described thus: cell-based or functional assay. The source holds these as a separate data set.
The target in another assay is T5, rat GLP-1 receptor (rat, UniProt P32301 22-463).
T5 sequence (looked up): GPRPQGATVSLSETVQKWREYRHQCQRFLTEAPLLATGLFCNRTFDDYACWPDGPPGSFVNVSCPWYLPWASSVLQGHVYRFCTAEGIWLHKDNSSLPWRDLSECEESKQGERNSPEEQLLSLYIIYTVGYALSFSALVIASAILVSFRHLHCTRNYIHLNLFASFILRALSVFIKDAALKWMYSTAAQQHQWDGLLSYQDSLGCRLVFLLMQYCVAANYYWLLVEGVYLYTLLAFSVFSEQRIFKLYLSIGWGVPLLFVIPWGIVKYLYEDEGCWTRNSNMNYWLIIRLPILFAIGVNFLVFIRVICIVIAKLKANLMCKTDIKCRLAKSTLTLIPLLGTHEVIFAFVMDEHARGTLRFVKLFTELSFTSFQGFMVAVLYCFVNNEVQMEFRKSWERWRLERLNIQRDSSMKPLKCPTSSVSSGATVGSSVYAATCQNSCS
The assay is described as follows: cell-based or functional assay.

For a further assay, the target named is rat glucagon receptor (rat, UniProt P30082 27-485). The assay can be described thus: cell-based or functional assay.
Another assay concerns the target mouse glucagon receptor (mouse, UniProt Q61606 27-485). The assay is described as follows: cell-based or functional assay.
Assay [15] deals with T1, human glucagon receptor. The assay is described as follows: cell-based or functional assay. This is another data set of the same source.
Another assay concerns the target T6, mouse GLP-1 receptor (mouse, UniProt O35659 22-463).
T6 sequence (looked up): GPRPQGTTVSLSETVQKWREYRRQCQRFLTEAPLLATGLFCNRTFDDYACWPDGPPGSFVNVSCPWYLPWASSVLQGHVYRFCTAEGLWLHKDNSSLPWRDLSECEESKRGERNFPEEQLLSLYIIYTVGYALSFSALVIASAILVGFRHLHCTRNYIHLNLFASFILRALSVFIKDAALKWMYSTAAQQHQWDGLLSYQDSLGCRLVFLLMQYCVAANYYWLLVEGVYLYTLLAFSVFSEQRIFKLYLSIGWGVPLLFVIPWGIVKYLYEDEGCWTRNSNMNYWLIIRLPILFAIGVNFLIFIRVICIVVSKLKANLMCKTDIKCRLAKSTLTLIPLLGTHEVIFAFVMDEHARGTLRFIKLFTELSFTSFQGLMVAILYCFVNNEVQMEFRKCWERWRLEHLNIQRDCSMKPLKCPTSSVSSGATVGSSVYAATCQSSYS
The assay can be described thus: cell-based or functional assay.

Like-named read-outs stand apart in the source and are kept apart here. Numbered stars: 1 amine (or outer) side, 2 acyl side, 3 side chain; on linkers, the order of the positions; unused ones are H or OH. Side chains are listed from the residue outwards. Ends that are not written are not given here. * marks the point of attachment. γGlu = O=C(O)[C@H](CCC(=O)[*:2])N[*:1]; Palmitoyl = CCCCCCCCCCCCCCCC(=O)*

T1 sequence (P47871 26-477): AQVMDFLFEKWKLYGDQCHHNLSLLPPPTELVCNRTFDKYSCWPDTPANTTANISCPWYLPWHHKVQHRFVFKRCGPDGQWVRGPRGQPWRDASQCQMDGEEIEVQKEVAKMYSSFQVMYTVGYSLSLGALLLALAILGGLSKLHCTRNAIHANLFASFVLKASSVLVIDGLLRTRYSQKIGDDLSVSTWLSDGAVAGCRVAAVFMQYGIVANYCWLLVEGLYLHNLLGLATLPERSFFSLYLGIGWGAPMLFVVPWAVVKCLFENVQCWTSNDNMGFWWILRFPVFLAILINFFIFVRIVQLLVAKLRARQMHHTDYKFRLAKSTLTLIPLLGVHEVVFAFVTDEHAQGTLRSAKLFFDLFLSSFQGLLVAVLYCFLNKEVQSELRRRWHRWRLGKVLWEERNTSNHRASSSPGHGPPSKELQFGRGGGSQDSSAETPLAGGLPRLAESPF
Sequence of rat glucagon receptor (P30082 27-485): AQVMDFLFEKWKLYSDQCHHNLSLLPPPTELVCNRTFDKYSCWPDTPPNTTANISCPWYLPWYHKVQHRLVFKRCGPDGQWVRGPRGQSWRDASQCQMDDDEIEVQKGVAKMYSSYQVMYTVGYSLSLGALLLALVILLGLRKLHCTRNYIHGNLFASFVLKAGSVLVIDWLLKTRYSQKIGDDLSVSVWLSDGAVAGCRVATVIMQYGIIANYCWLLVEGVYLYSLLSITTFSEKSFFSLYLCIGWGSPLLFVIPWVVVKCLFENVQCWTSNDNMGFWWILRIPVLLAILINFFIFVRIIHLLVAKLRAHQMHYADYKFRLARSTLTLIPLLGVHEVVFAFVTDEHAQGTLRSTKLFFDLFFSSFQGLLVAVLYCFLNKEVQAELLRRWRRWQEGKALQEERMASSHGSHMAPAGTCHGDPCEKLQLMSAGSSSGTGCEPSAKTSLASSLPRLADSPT
Sequence of mouse glucagon receptor (Q61606 27-485): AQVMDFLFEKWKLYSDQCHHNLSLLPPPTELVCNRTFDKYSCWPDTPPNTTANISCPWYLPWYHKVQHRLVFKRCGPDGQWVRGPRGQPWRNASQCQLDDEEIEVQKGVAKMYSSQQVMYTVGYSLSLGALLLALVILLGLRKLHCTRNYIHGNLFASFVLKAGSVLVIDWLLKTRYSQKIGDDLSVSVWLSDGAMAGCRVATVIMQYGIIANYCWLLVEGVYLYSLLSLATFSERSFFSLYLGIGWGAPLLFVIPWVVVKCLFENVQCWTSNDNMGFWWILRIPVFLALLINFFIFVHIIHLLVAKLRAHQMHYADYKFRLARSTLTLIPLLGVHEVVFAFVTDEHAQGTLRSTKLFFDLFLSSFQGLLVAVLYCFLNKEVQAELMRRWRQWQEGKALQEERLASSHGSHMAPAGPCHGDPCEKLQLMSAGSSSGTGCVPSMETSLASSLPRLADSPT
Sequence of human glucagon receptor (human) (P47871 26-477): as the sequence (P47871 26-477) above
Sequence of human GLP-1 receptor (human) (P43220 24-463): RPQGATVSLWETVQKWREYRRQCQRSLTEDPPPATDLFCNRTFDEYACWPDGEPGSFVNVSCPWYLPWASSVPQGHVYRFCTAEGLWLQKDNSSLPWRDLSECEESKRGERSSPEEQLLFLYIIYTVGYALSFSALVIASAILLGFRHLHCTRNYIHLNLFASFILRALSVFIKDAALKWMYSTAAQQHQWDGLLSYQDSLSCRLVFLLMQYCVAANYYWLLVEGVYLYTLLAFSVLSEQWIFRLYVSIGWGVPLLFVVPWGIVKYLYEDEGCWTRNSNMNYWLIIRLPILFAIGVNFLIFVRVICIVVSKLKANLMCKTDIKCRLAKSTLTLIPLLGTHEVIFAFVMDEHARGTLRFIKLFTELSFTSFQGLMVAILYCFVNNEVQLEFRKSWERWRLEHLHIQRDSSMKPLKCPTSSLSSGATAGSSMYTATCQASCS
Sequence of human serum albumin (human) (P02768 25-609 limits assumed): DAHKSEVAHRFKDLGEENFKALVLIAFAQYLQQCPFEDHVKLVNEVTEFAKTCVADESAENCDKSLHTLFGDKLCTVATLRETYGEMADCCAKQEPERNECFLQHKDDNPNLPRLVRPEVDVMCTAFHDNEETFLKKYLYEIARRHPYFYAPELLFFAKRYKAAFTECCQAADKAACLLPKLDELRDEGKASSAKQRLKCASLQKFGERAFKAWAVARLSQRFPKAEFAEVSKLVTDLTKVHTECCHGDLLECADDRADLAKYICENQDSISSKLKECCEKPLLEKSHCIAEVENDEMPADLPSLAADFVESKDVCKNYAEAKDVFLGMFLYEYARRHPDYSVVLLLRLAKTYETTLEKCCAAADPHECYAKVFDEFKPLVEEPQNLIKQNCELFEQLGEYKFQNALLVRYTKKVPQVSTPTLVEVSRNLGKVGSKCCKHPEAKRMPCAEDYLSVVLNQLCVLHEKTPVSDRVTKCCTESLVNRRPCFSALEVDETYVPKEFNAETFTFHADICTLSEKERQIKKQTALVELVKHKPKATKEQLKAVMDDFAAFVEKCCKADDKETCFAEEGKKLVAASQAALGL

B1: G931 (peptide)
peptide: HSQGTFTSDYSKK([γGlu-Palmitoyl])LDSERARDFVAWLVAGG-OH
modifications: N-terminus assumed
SMILES: CCCCCCCCCCCCCCCC(=O)N[C@@H](CCC(=O)NCCCC[C@H](NC(=O)[C@H](CCCCN)NC(=O)[C@H](CO)NC(=O)[C@H](Cc1ccc(O)cc1)NC(=O)[C@H](CC(=O)O)NC(=O)[C@H](CO)NC(=O)[C@@H](NC(=O)[C@H](Cc1ccccc1)NC(=O)[C@@H](NC(=O)CNC(=O)[C@H](CCC(N)=O)NC(=O)[C@H](CO)NC(=O)[C@@H](N)Cc1c[nH]cn1)[C@@H](C)O)[C@@H](C)O)C(=O)N[C@@H](CC(C)C)C(=O)N[C@@H](CC(=O)O)C(=O)N[C@@H](CO)C(=O)N[C@@H](CCC(=O)O)C(=O)N[C@@H](CCCNC(=N)N)C(=O)N[C@@H](C)C(=O)N[C@@H](CCCNC(=N)N)C(=O)N[C@@H](CC(=O)O)C(=O)N[C@@H](Cc1ccccc1)C(=O)N[C@H](C(=O)N[C@@H](C)C(=O)N[C@@H](Cc1c[nH]c2ccccc12)C(=O)N[C@@H](CC(C)C)C(=O)N[C@H](C(=O)N[C@@H](C)C(=O)NCC(=O)NCC(=O)O)C(C)C)C(C)C)C(=O)O
Take B1: the “cAMP EC50 (assay 1)” value with human glucagon receptor [1] was 0.0178 nM; in the assay with human GLP-1 receptor [2], 0.13 nM.

As to HSQGTFTSDYSKYLDSRRAQDFVQWLVAGGPSSGAPPPSK(Palmitoyl)-NH2 [g320], the cAMP EC50 (assay 1) in [3] was 0.00938 nM; in assay [4], 1.01 nM; in [5], 0.0032 nM.

On to HSQGTFTSDKSRYLDSRSARDFVAWLEAGG (X10 = K(gE-palm); C-terminal amide) [G849], for which the free peptide at 4.4% HSA in assay [6] is 0.48%. The “cAMP EC50 (assay 1)” value was found to be 0.00907 nM with human GLP-1 receptor [7]; 18.1 nM in assay [8]; 0.00226 nM in the assay with human glucagon receptor [10]; 0.009 nM with human GLP-1 receptor [11]; 17 nM in [12]. The “EC50 at the GLP1R at 0% HSA (calculated)” value with human GLP-1 receptor [9] was 0.002 nM. In addition, the “cAMP EC50 (assay 2, 4.4% human serum albumin)” value with human glucagon receptor [13] amounted to 0.079 nM; in the assay with human GLP-1 receptor [14], 0.172 nM. In addition, the “cAMP EC50 (assay 2, 3.2% rat serum albumin)” value with rat GLP-1 receptor amounted to 0.044 nM; in the assay with rat glucagon receptor, 4.05 nM. Further, the “cAMP EC50 (assay 2, 3.2% mouse serum albumin)” value with mouse glucagon receptor is 0.103 nM.

B2: g848 (peptide)
peptide: HSQGTFTSDK([γGlu-Palmitoyl])SRYLDSERARDFVAWLEAGG-NH2
modifications: N-terminus assumed
SMILES: CCCCCCCCCCCCCCCC(=O)N[C@@H](CCC(=O)NCCCC[C@H](NC(=O)[C@H](CC(=O)O)NC(=O)[C@H](CO)NC(=O)[C@@H](NC(=O)[C@H](Cc1ccccc1)NC(=O)[C@@H](NC(=O)CNC(=O)[C@H](CCC(N)=O)NC(=O)[C@H](CO)NC(=O)[C@@H](N)Cc1c[nH]cn1)[C@@H](C)O)[C@@H](C)O)C(=O)N[C@@H](CO)C(=O)N[C@@H](CCCNC(=N)N)C(=O)N[C@@H](Cc1ccc(O)cc1)C(=O)N[C@@H](CC(C)C)C(=O)N[C@@H](CC(=O)O)C(=O)N[C@@H](CO)C(=O)N[C@@H](CCC(=O)O)C(=O)N[C@@H](CCCNC(=N)N)C(=O)N[C@@H](C)C(=O)N[C@@H](CCCNC(=N)N)C(=O)N[C@@H](CC(=O)O)C(=O)N[C@@H](Cc1ccccc1)C(=O)N[C@H](C(=O)N[C@@H](C)C(=O)N[C@@H](Cc1c[nH]c2ccccc12)C(=O)N[C@@H](CC(C)C)C(=O)N[C@@H](CCC(=O)O)C(=O)N[C@@H](C)C(=O)NCC(=O)NCC(N)=O)C(C)C)C(=O)O
As to B2, the “cAMP EC50 (assay 1)” value with human glucagon receptor [15] was 0.000966 nM; in the assay with human GLP-1 receptor [7], 0.00942 nM; in assay [8] it was 2.77 nM.

Turning to HSQGTFTSDKSSYLDSRRARDFVAWLEAGG (X10 = K(gE-palm); C-terminal amide) [G796], the “cAMP EC50 (assay 1)” value was found to be 0.00181 nM in the assay with human glucagon receptor [15]; 0.014 nM in the assay with human GLP-1 receptor [7]; 17.4 nM in assay [8]; 0.00176 nM in the assay with human glucagon receptor [10]; 0.013 nM with human GLP-1 receptor [11]; 14 nM in assay [12]. For the same molecule, the “cAMP EC50 (assay 2, 4.4% human serum albumin)” value with human glucagon receptor [13] is 0.053 nM; with human GLP-1 receptor [14] it was 0.14 nM. Moreover, the entries for the “cAMP EC50 (assay 2, 3.2% rat serum albumin)” value in the assay with rat GLP-1 receptor and with rat glucagon receptor were 0.023 nM and 2 nM, respectively. In addition, the “cAMP EC50 (assay 2, 3.2% mouse serum albumin)” value came out at 0.13 nM with mouse GLP-1 receptor and 0.034 nM with mouse glucagon receptor.

B3: G380 (peptide)
peptide: HGQGTFTSDYSKYLDSK([γGlu-Palmitoyl])RAQDFVQWLVAGG-NH2
modifications: N-terminus assumed
SMILES: CCCCCCCCCCCCCCCC(=O)N[C@@H](CCC(=O)NCCCC[C@H](NC(=O)[C@H](CO)NC(=O)[C@H](CC(=O)O)NC(=O)[C@H](CC(C)C)NC(=O)[C@H](Cc1ccc(O)cc1)NC(=O)[C@H](CCCCN)NC(=O)[C@H](CO)NC(=O)[C@H](Cc1ccc(O)cc1)NC(=O)[C@H](CC(=O)O)NC(=O)[C@H](CO)NC(=O)[C@@H](NC(=O)[C@H](Cc1ccccc1)NC(=O)[C@@H](NC(=O)CNC(=O)[C@H](CCC(N)=O)NC(=O)CNC(=O)[C@@H](N)Cc1c[nH]cn1)[C@@H](C)O)[C@@H](C)O)C(=O)N[C@@H](CCCNC(=N)N)C(=O)N[C@@H](C)C(=O)N[C@@H](CCC(N)=O)C(=O)N[C@@H](CC(=O)O)C(=O)N[C@@H](Cc1ccccc1)C(=O)N[C@H](C(=O)N[C@@H](CCC(N)=O)C(=O)N[C@@H](Cc1c[nH]c2ccccc12)C(=O)N[C@@H](CC(C)C)C(=O)N[C@H](C(=O)N[C@@H](C)C(=O)NCC(=O)NCC(N)=O)C(C)C)C(C)C)C(=O)O
With B3, the “cAMP EC50 (assay 1)” value in the assay with human glucagon receptor [15] was determined as 0.362 nM; in the assay with human GLP-1 receptor [7], 0.1 nM; in [8], 609 nM; with human glucagon receptor [10] it was 0.217 nM; with human GLP-1 receptor [11], 0.077 nM; in assay [12] it was 130 nM. Besides, the results for the “cAMP EC50 (assay 2, 4.4% human serum albumin)” value with human glucagon receptor [13] and with human GLP-1 receptor [14] were 53.6 nM and 6.54 nM, respectively. The “cAMP EC50 (assay 2, 3.2% mouse serum albumin)” value stood at 15 nM with mouse GLP-1 receptor and 576 nM with mouse glucagon receptor.

In the case of HSQGTFTSDYSKYLDSRRAQDFVQWLVAGGPSSGAPPPSK-NH2 [g319], the cAMP EC50 (assay 1) in [3] amounted to 0.0361 nM; in assay [5], 0.0104 nM.

Turning to HSQGTFTSDKSKYLEGQAAKEFIAWLEKGR (X10 = K(gE-palm); C-terminal amide) [G812], the “cAMP EC50 (assay 1)” value in the assay with human glucagon receptor [10] stood at 0.00817 nM; with human GLP-1 receptor [11] it was 0.011 nM; in [12], 2.7 nM. Also, the “cAMP EC50 (assay 2, 4.4% human serum albumin)” value was 0.764 nM with human glucagon receptor [13] and 0.316 nM with human GLP-1 receptor [14]. Moreover, the “cAMP EC50 (assay 2, 3.2% rat serum albumin)” value with rat GLP-1 receptor is 0.019 nM; in the assay with rat glucagon receptor it was 14.1 nM. In addition, the figures for the “cAMP EC50 (assay 2, 3.2% mouse serum albumin)” value with mouse GLP-1 receptor and with mouse glucagon receptor were 0.13 nM and 0.947 nM, respectively.

The EC50 is the concentration at which the effect is half-maximal.
